± gives the standard deviation of the averaged measurements.
Tests used:
Saccharomyces cerevisiae [1] = test: protein stability index of tFT-peptide fusion (C-terminal peptide) (PSI (0-1 scale)); higher = more stable (slower turnover)
Protocol: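 MPS profiling in S. cerevisiae of the tFT-X12 degron library: putative degron peptides plus stable controls, 12 aa, fused to the C-terminus of a sfGFP-mCherry timer. Cells are FACS-sorted into 8 mCherry/sfGFP bins and deep-sequenced. PSI runs from 0 (unstable) to 1 (stable). Backgrounds are wild type, das1Δ and doa10Δ at 30 °C, and wild type, das1Δ, cdc34-1 and cdc53-1 at 37 °C; 2-3 technical replicates each.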

Saccharomyces cerevisiae [2] = test: as above; details: genetic background: wild type; temperature: 30 C
[3] = genetic background: cdc34-1, temperature: 37 C
[4] = genetic background: cdc53-1, temperature: 37 C
[5] = genetic background: das1 deletion, temperature: 30 C
[6] = genetic background: das1 deletion, temperature: 37 C
[7] = genetic background: doa10 deletion, temperature: 30 C
[8] = genetic background: wild type, temperature: 30 C
[9] = genetic background: wild type, temperature: 37 C
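Note: PSI is a weighted mean of sequencing reads over stability bins, variants kept only with over 10 reads, mCherry proximal and sfGFP distal, peptide attached via GGGS linker.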

Sequence	protein stability index (Saccharomyces cerevisiae [1]; [3])	protein stability index (Saccharomyces cerevisiae [1]; [4])	protein stability index (Saccharomyces cerevisiae [1]; [5])	protein stability index (Saccharomyces cerevisiae [1]; [6])	protein stability index (Saccharomyces cerevisiae [1]; [7])	protein stability index (Saccharomyces cerevisiae [1]; [8])	protein stability index (Saccharomyces cerevisiae [1]; [9])	protein stability index (Saccharomyces cerevisiae [2])
ERFRLYFRPGIF	0.635 ± 0.036	0.7213 ± 0.00075	0.653 ± 0.031	0.709 ± 0.021	0.296 ± 0.03	0.332 ± 0.015	0.58 ± 0.008	0.234 ± 0.091
ESCWVSRVGVCR	0.685 ± 0.03	0.731 ± 0.038	0.649 ± 0.062	0.7347 ± 0.0049	0.588 ± 0.0086	0.608 ± 0.01	0.687 ± 0.018	0.694 ± 0.076
EVTRMLRVVREI	0.689 ± 0.035	0.761 ± 0.032	0.631 ± 0.026	0.768 ± 0.016	0.322 ± 0.0093	0.38 ± 0.032	0.588 ± 0.02	0.456 ± 0.065
EWLITLRKCGVA	0.606 ± 0.03	0.613 ± 0.011	0.478 ± 0.026	0.6107 ± 0.006	0.397 ± 0.0075	0.423 ± 0.027	0.533 ± 0.006	0.463 ± 0.048
EWRPYKRNKQSS	0.63 ± 0.011	0.759 ± 0.053	0.638 ± 0.028	0.755 ± 0.023	0.223 ± 0.016	0.211 ± 0.028	0.4112 ± 0.0037	0.353 ± 0.13
EWVGIFRGVSVF	0.2846 ± 0.0011	0.293 ± 0.0067	0.256 ± 0.032	0.4158 ± 0.003	0.224 ± 0.02	0.267 ± 0.022	0.374 ± 0.0073	0.371 ± 0.0074
FAKRVARVAREH	0.677 ± 0.052	0.725 ± 0.018	0.6452 ± 0.0051	0.726 ± 0.012	0.17 ± 0.024	0.219 ± 0.0058	0.383 ± 0.014	0.33 ± 0.021
FALFLFFGPLIV	0.435 ± 0.066	0.486 ± 0.012	0.301 ± 0.056	0.52344 ± 0.00026	0.335 ± 0.019	0.331 ± 0.011	0.4857 ± 0.0017	0.4287 ± 0.0032
FASFLFFCYIIF	0.124 ± 0.042	0.118 ± 0.0078	0.192 ± 0.034	0.2631 ± 0.00071	0.24 ± 0.022	0.154 ± 0.04	0.213 ± 0.018	0.197 ± 0.0022
FCCFFPFLWRVF	0.593 ± 0.028	0.609 ± 0.034	0.541 ± 0.013	0.663 ± 0.017	0.317 ± 0.009	0.322 ± 0.016	0.455 ± 0.0052	0.378 ± 0.018
FCFYLLFLGFTR	0.475 ± 0.035	0.512 ± 0.042	0.364 ± 0.027	0.546 ± 0.053	0.37 ± 0.01	0.324 ± 0.018	0.523 ± 0.029	0.431 ± 0.011
FCLFFFPSLFFF	0.57 ± 0.11	0.538 ± 0.024	0.529 ± 0.042	0.604 ± 0.023	0.333 ± 0.012	0.295 ± 0.026	0.443 ± 0.017	0.371 ± 0.016
FCRLCYLLLFCC	0.37 ± 0.044	0.414 ± 0.012	0.404 ± 0.025	0.531 ± 0.022	0.211 ± 0.0056	0.196 ± 0.016	0.20208 ± 0.0002	0.254 ± 0.022
FELVWLCIIGAL	0.415 ± 0.012	0.507 ± 0.031	0.331 ± 0.031	0.516 ± 0.01	0.106 ± 0.0082	0.122 ± 0.019	0.2271 ± 0.0017	0.173 ± 0.04
FFCFFWLFHWFG	0.512 ± 0.012	0.566 ± 0.022	0.485 ± 0.016	0.5875 ± 0.0025	0.4643 ± 0.0022	0.451 ± 0.015	0.5356 ± 0.0044	0.443 ± 0.028
FFCSLIISRFLL	0.542 ± 0.035	0.608 ± 0.014	0.511 ± 0.018	0.62 ± 0.02	0.139 ± 0.012	0.168 ± 0.033	0.299 ± 0.0054	0.214 ± 0.04
FFFFFIHFLCYF	0.239 ± 0.019	0.208 ± 0.0039	0.249 ± 0.034	0.383 ± 0.021	0.288 ± 0.0065	0.239 ± 0.047	0.357 ± 0.0053	0.31 ± 0.035
FFFFFLLFFLRV	0.229 ± 0.027	0.247 ± 0.007	0.303 ± 0.046	0.343 ± 0.018	0.313 ± 0.005	0.233 ± 0.018	0.313 ± 0.0043	0.303 ± 0.04
FFFFLVPVHCVI	0.261 ± 0.029	0.371 ± 0.028	0.261 ± 0.035	0.452 ± 0.021	0.239 ± 0.023	0.249 ± 0.024	0.406 ± 0.018	0.358 ± 0.02

— the supplement of paper PMC10724198
